# Assay results published in patent US20220162334A1 (SHANGHAI HENLIUS BIOTECH, published 2022).
# Residue numbers refer to the chain shown, from its start. Numbers in names are those of the source.
# T1: human CD73 on CD73-expressing human tumor cells (MDA-MB-231, NCI-H292) (human, UniProt P21589 27-549)
# T1 construct: whole, on cells; The cell line of each result is named under assay or readout; also called cell surface CD73; surface CD73
# T1 sequence (looked up): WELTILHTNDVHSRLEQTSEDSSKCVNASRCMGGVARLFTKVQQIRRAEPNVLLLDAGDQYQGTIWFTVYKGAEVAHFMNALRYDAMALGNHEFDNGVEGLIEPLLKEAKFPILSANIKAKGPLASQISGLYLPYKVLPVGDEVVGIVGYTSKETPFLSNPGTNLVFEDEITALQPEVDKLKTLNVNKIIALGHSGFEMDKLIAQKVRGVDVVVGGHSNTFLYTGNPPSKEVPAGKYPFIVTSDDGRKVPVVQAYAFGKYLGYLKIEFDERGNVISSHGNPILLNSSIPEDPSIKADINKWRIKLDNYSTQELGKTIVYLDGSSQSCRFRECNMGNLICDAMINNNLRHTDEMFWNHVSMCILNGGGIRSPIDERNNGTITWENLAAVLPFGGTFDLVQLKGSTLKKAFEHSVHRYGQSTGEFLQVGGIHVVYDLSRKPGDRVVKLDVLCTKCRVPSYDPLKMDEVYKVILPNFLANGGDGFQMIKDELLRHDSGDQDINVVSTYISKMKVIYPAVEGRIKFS
# B1: N4#6 (antibody, human IgG2, V domains shown)
# VH: QVQLVQSGAEVKKSGSSVKVSCKASGGTFSSYAISWVRQAPGQGLEWMGGIIPIFGTTNYAQKFQGRVTITADESTSIAYMELSSLRSEDTAVYYCASDGAVAAYDAFLIWGQGTMVTVSS
# VL: QAVLTQPSSVSGAPGQRVTISCTGTSSNIGAGYDIHWYQQLPGTAPKLLMYRFTRRPSGVPDRFSGSKSGTSASLTITGLQVEDEADYYCQSYDSGQRGWVFGGGTKLTVL
# notes: also called N4 variant N4#6
# B2: N4#6-3 (antibody, human IgG2, V domains shown)
# VH: B1 VH with T58A
# VL: B1 VL with A31L, Q40H, T54D
# notes: also called N4 variant N4#6-3
# B3: N4#6-2 (antibody, human IgG2, V domains shown)
# VH: B1 VH with G50R
# VL: B1 VL with A31H, Q40H, T54V
# notes: also called N4 variant N4#6-2
# B4: N4#4-3 (antibody, human IgG2, V domains shown)
# VH: B1 VH with S30A, T58V, L109D
# VL: B1 VL with A31Q, Q97L, V101A
# notes: also called N4 variant N4#4-3
# B5: N4#5 (antibody, human IgG2, V domains shown)
# VH: B1 VH with S35A, T58V, L109S
# VL: B1 VL with Q97L, W100L
# notes: also called N4 variant N4#5
# B6: N4#6-5 (antibody, human IgG2, V domains shown)
# VH: B1 VH with G50R, V93M
# VL: B1 VL with A31T
# notes: also called N4 variant N4#6-5
# B7: N4#6-4 (antibody, human IgG2, V domains shown)
# VH: B1 VH with G50M, T58A
# VL: B1 VL with Y33F, T54S
# notes: also called N4 variant N4#6-4
# B8: N1#9 (antibody, human IgG2, V domains shown)
# VH: EVQLVESGGGLVQPGRSLRLSCAASGFTFDDYAMHWVRLAPGKGLEWVSGISWNSGSIGYADSVRGRFTISRDNAKNSLYLQMNSLRAEDTALYYCAKDMGWSLLKTNYYGMDVWGQGTTVTVSS
# VL: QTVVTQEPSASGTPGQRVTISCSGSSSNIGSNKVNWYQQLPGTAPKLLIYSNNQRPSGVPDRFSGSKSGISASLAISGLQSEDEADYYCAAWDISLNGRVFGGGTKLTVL
# notes: also called N1 variant N1#9
# B9: N1#2 (antibody, human IgG2, V domains shown)
# VH: B8 VH with F27L, L39Q, G56N, S63P, S103E, N108S
# VL: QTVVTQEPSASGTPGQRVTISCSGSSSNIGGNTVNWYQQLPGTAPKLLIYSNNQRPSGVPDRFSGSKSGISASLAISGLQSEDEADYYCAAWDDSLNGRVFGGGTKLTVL
# notes: also called N1 variant N1#2
# B10: N1-wtIgG2 (antibody)
# heavy: EVQLVESGGGLVQPGRSLRLSCAASGFTFDDYAMHWVRQAPGKGLEWVSGISWNSGSIGYADSVRGRFTISRDNAKNSLYLQMNSLRAEDTALYYCAKDMGWELLKTYYYGMDVWGQGTTVTVSSASTKGPSVFPLAPCSRSTSESTAALGCLVKDYFPEPVTVSWNSGALTSGVHTFPAVLQSSGLYSLSSVVTVPSSNFGTQTYTCNVDHKPSNTKVDKTVERKCCVECPPCPAPPVAGPSVFLFPPKPKDTLMISRTPEVTCVVVDVSHEDPEVQFNWYVDGVEVHNAKTKPREEQFNSTFRVVSVLTVVHQDWLNGKEYKCKVSNKGLPAPIEKTISKTKGQPREPQVYTLPPSREEMTKNQVSLTCLVKGFYPSDIAVEWESNGQPENNYKTTPPMLDSDGSFFLYSKLTVDKSRWQQGNVFSCSVMHEALHNHYTQKSLSLSPGK
# light: not shown
# notes: Heavy chain assembled from VH and the named constant region entry; also called N1 clone, wtIgG2 isotype
# B11: N1-mtIgG2 (antibody)
# heavy: B10 heavy with C227S
# light: not shown
# notes: Heavy chain assembled from VH and the named constant region entry; also called N1 clone, mtIgG2 isotype; C219S mutant IgG2
# B12: N1-tmtIgG1 (antibody)
# heavy: EVQLVESGGGLVQPGRSLRLSCAASGFTFDDYAMHWVRQAPGKGLEWVSGISWNSGSIGYADSVRGRFTISRDNAKNSLYLQMNSLRAEDTALYYCAKDMGWELLKTYYYGMDVWGQGTTVTVSSASTKGPSVFPLAPSSSTSGGTAALGCLVKDYFPEPVTVSWNSGALTSGVHTFPAVLQSSGLYSLSSVVTVPSSSLGTQTYICNVNHKPSNTKVDKRVEPKSCDKTHTCPPCPAPEFEGGPSVFLFPPKPKDTLMISRTPEVTCVVVDVSHEDPEVKFNWYVDGVEVHNAKTKPREEQYNSTYRVVSVLTVLHQDWLNGKEYKCKVSNKALPASIEKTISKAKGQPREPQVYTLPPSREEMTKNQVSLTCLVKGFYPSDIAVEWESNGQPENNYKTTPPVLDSDGSFFLYSKLTVDKSRWQQGNVFSCSVMHEALHNHYTQKSLSLSPGK
# light: not shown
# notes: Heavy chain assembled from the VH entry and the constant region entry named tmtIgG1; also called lead N1; N1 clone, tmtIgG1 isotype
# Biological target: T1, human CD73 on CD73-expressing human …
# Assay: flow cytometry on MDA-MB-231 and NCI-H292 cells (FIGS. 11A, 11B)
# Description: Whole cell binding ability of anti-CD73 antibodies were tested by incubating the MDA-MB-231 or NCI-H292 cells with the serial-diluted antibodies in FACS buffer (PBS with 2% FBS) at 4° C. for 30 minutes. Cells were washed with FACS buffer and the binding was detected with FITC-labeled goat anti-human IgG (H+L) antibodies (or PE-labeled goat anti-human IgG Fcγ) at 4° C. for another 30 minutes. The binding of antibodies to cell surface was measured by the mean fluorescent intensity (MFI) of staining. Flow cytometric analyses were performed using the Cytomics FC500 or CytoFLEX flow cytometry (Beckman Coulter Inc.). FIGS. 2B and 2C show selected anti-CD73 antibodies binding to CD73-expressing human tumor cells MDA-MB-231 (human breast adenocarcinoma) cells (FIG. 2B), and NCI-H292 (human mucoepidermoid pulmonary carcinoma) cells (FIG. 2C).
# FIGS. 11A-11B also show CD73 binding of N1 and N4 variants. Selected variants were tested the binding to CD73-expressing MDA-MB-231 (FIG. 11A) and NCI-H292 (FIG. 11B) cells by flow cytometry. HLX01 (anti-CD20) was used as the negative control. […] N4 variants have better CD73 binding ability than N1 variants in these two cell lines. The rank of the whole cell binding ability is: N4#5, N4#6-4, N4#6-5>N4#6-2>N4#4-3, N4#6, N4#6-3, N1#9>N1#2.
row,binding result,Binder
1,binds,B1
2,binds,B2
3,binds,B3
4,binds,B4
5,binds,B5
6,binds,B6
7,binds,B7
8,binds,B8
9,binds,B9

# Biological target: T1, human CD73 on CD73-expressing human …
# Assay: flow cytometry on MDA-MB-231 cells, biotin-labeled antibody, streptavidin-FITC (FIG. 5A)
# Description: The binding of anti-CD73 antibodies to cell surface CD73 were tested by incubating the MDA-MB-231 cells with the serially diluted biotin-labeled anti-CD73 antibodies in FACS buffer (PBS with 2% FBS) at 4° C. for 30 minutes. The cells were washed with FACS buffer and the binding was detected with streptavidin-FITC at 4° C. for 30 minutes. Flow cytometric analyses were performed using the Cytomics FC500 (Beckman Coulter Inc.).
# The variable sequences of N1, N2 and N4 were cloned into human wild-type or C219S mutant IgG2 Fc backbone. Different IgG isotypes of N1 (FIG. 5A), N2 (FIG. 5B), N4 (FIG. 5C) were tested the binding to CD73-expressing human MDA-MB-231 cells by flow cytometry. Anti-CD73 ref-1 antibody and HLX01 (anti-CD20) were used as the positive and negative control respectively.
row,binding result,Binder
1,binds,B10
2,binds,B11
3,binds,B12
